Measured values published in patent US20090263380A1 (published 2009).

Assays:
[1] = biological target: T1, human monoclonal anti-C1 domain of Factor VIII antibody RHD5; assay: cell-based or functional assay
[2] = biological target: T1, human monoclonal anti-C1 domain of …; assay: SPR (BIAcore), RHD5 immobilized on CM5, 18B6 infused
Protocol: The binding kinetics of the anti-idiotypic antibody 18B6 to inhibitor RHD5 antibody was evaluated by use of the <<Surface plasmon resonance Biacore>> method using the Pharmacia Biosensor BIAcore (Pharmacia Biosensor AB, Uppsala, Sweden). The RHD5 antibodies were immobilized on the activated surface of a CM5 probe. The anti-idiotypic antibodies 18B6 were infused in different RHD5 concentrations immobilized on the surface of the probe. The association and dissociation constants were determined: […]

[3] = biological target: T1, human monoclonal anti-C1 domain of …; assay: competition ELISA, 18B6 with RHD5 2 µg/ml, RHD5 binding to coated recFVIII
Protocol: Recombinant Factor VIII (recFVIII) (Baxter) at 2 μg/ml in a glycine buffer, 50 μl/well, was insolubilized, then left for 2 hours at room temperature. The RHD5 antibody (or an irrelevant IgG1) at 0.6 μg/ml final concentration was pre-incubated over 2 hours with the culture supernatants in a dilution 1/1, 1/2 and 1/4 in Magic Buffer. The wells were washed 3 times with a PBS/Tween buffer, then saturated with 100 μl/well of Magic Buffer (30 min at room temperature). Afterwards, the culture supernatant was incubated with 50 μl of RHD5 (or irrelevant IgG1) (2 hours at room temperature, Magic Buffer), then, 3 washings were performed. The RHD5 antibodies bound to insolubilized recFVIII were detected by addition of 50 μl/well of a mouse polyclonal human anti-IgG HRP-labelled (Southern Biotechnology) antibodies solution of 1 μg/ml in Magic Buffer. Three successive washings were carried out with PBS/Tween, then revelation carried out with a chromogen (OPD ortho-phenyl diamine) and a reading of the obtained coloration intensity with a reader having filters corresponding to wavelengths 490/650 nm (reader Emax Molecular Devithese, Sunnyvale, Calif.).
The inhibition of RHD5 antibody binding to insolubilized recombinant FVIII was measured according to the protocol described in point IV. The concentration of used RHD5 is equal to 2 μg/ml.

T1 sequence (VH, as listed by the source, chain 1 of 2): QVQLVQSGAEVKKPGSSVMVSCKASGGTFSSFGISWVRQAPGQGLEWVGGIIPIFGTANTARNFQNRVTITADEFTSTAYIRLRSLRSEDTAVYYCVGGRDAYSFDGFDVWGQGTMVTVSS
T1 sequence (VL, as listed by the source, chain 2 of 2): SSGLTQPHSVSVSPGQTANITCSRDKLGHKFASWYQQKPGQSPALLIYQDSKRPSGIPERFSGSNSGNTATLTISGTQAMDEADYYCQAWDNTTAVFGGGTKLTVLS

neutralisation of RHD5 inhibitory activity at an equimolar RHD5/18B6 ratio [1]: 50%
Kd [2]: 3.4 nM
koff [2]: 1.45e-05 s⁻¹
kon [2]: 4260 M⁻¹ s⁻¹
inhibition of binding at an equimolar ratio (%) [3]: 92%
molar ratio RHD5/18B6 giving 50% inhibition [3]: 2.5 molar ratio RHD5/18B6
B1: anti-idiotypic antibody 18B6 (antibody, V domains shown)
VH: QVQLQQSGAELAKPGASVKMSCKASGYTFTTYWMHWIKQRPGQDLEWIGYINPTSGYTEYNQNFKDKATLTADKSSSTAYMQLNSLTSEDSAVYFCARSGAYYRYDDAMDSWGQGTSVTVSS
VL: QIVLSQSPAILSASPGEKVTMTCRASSSVSYMNWYQQKPGSSPKPWIYATSNLASGVPARFSGSGSGTSYSLTISRVEAEDAATYYCQQWSSNPPMLTFGAGTKLELK
notes: also called 18B6 anti-RHD5 clone
